The experiment addresses CA09 N1 sNAp (stabilized recombinant N1 neuraminidase head of H1N1 A/California/07/2009) (Influenza A virus H1N1 A/California/07/2009). Put plainly: cryo-EM structure.

Regarding “CA09 N1 sNAp (stabilized recombinant N1 neuraminidase head of H1N1 A/California/07/2009) (enzyme)”, the stoichiometry N was 4.

By stoichiometry N is commonly meant a count of units in the complex or per binding partner.

For the origin of these results see PMC12316933.
